Measured values taken from patent US20250382372A1 (OXFORD UNIVERSITY INNOVATION, published 2025).

Tests used:
[1] = biological target: human CD1a expressed on cells (human) (UniProt P06126); test: flow cytometry, ear skin cells of a CD1a transgenic mouse given antibody 116 (100 ug i.p. on days 0, 2 and 4; panel 'CD1a : OX116'), stained on day 5 with anti-CD1a SK9
[2] = biological target: human CD1a expressed on cells (human) (UniProt P06126); test: flow cytometry, ear skin cells of a CD1a transgenic mouse given isotype control (panel 'CD1a : iso'), stained with anti-CD1a SK9; cell population not named on the sheet
[3] = biological target: human CD1a expressed on cells (human) (UniProt P06126); test: flow cytometry, ear skin cells of a CD1a transgenic mouse given antibody 116 (100 ug i.p. on days 0, 2 and 4; row 'CD1a : OX116'), stained on day 5 with anti-CD1a HI149; the cloud of cells lies at the lower edge of the gate
[4] = biological target: human CD1a expressed on cells (human) (UniProt P06126); test: flow cytometry, ear skin cells of a CD1a transgenic mouse given isotype control (row 'CD1a : iso'), stained with anti-CD1a HI149; cell population not named on the sheet
[5] = biological target: T1, human CD1b expressed on HEK-293 cells (human, UniProt P29016 18-333; P61769 21-119); test: flow cytometry, HEK-293
T1 construct: whole, on cells; also called HEK - CD1b
Experimental: (§1) CD1a-specific antibodies were identified by flow cytometry. Binding to proteins expressed on HEK, CIR and MOLT4 cell lines was assessed. […] The C1R-CD1a, C1R-empty vector and MOLT4 cell lines were washed in 1×PBS on the day required. All cell lines were counted and resuspended in 1×PBS and then stained for 30 minutes at 37° C. using the DiI or DiO cellular stains (Invitrogen). Cells were washed with flow cytometry buffer (1% bovine serum albumin, 2 mM EDTA and 0.1% sodium azide in PBS) before mixing 2 DiI-stained and DiO-stained populations together. The cells (20 μl/well) were then added to dilutions of antibody sample (B cell culture supernatant, TAP supernatant, clone supernatant, purified antibody solution) (20 μl/well) and incubated for 1 hour at 4° C. in a flow cytometry assay plate, before being washed with flow cytometry buffer. 10 μl/well of Alexafluor647-conjugated goat anti-species IgG Fc-specific F(ab′)2 fragment (Jackson ImmunoResearch), diluted 1:2500 in flow cytometry buffer, was added and incubated at 4° C. for 30 minutes, followed by washing with wash buffer. The fluorescence intensity was then measured on an iQue screener PLUS.
(§2) HEK-293 cells were transiently transfected with human CD1a, CD1b, CD1c or CD1d and co-transfected with human β2M.

[6] = biological target: T2, human CD1d expressed on HEK-293 cells (human, UniProt P15813 20-335; P61769 21-119); test: flow cytometry, HEK-293
T2 construct: whole, on cells; also called HEK - CD1d
Experimental: as §1, §2

[7] = biological target: T3, human CD1c expressed on HEK-293 cells (human, UniProt P29017 18-333; P61769 21-119); test: flow cytometry, HEK-293
T3 construct: whole, on cells; also called HEK - CD1c
Experimental: as §1, §2

[8] = biological target: Cynomolgus monkey CD1a expressed on HEK-293 cells (Cynomolgus monkey); test: flow, HEK-293, Ab 10 µg/ml
[9] = biological target: Cynomolgus monkey CD1a expressed on HEK-293 cells (Cynomolgus monkey); test: flow, HEK-293, Ab 0.1 µg/ml
[10] = biological target: Cynomolgus monkey CD1a protein (Cynomolgus monkey); test: ELISA, Ab 0.1 µg/ml
[11] = biological target: Cynomolgus monkey CD1a expressed on HEK-293 cells (Cynomolgus monkey); test: flow, HEK-293, Ab 0.01 µg/ml
[12] = biological target: Cynomolgus monkey CD1a protein (Cynomolgus monkey); test: ELISA, Ab 0.01 µg/ml
[13] = biological target: Cynomolgus monkey CD1a protein (Cynomolgus monkey); test: ELISA, Ab 10 µg/ml
[14] = biological target: Cynomolgus monkey CD1a protein (Cynomolgus monkey); test: ELISA, Ab 1 µg/ml
[15] = biological target: T4, Human CD1a/beta2m heterodimer (HEK293S, deglycosylated, zippers and tags cleaved) (human, UniProt P61769 21-119); test: SPR (Biacore 3000): biotinylated OX116 scFv on a streptavidin chip, CD1a-LPC (CD1a loaded with lysophosphatidylcholine) injected up to 1000 nM; 1:1 specific binding fit; unit from the legend paragraph 293
T4 construct: Protein of the crystal structures and of the Biacore 3000 SPR experiments; Carries endogenous lipids (CD1a-endo) or a loaded lipid (named under assay); also called CD1a-endo; CD1a loaded with a specific lipid
Experimental: (§3) Depending on the experiment biotinylated scFv molecules were coupled onto the chip surface until a total of 150 or 1000 response units per flow cell were achieved. […] Each lipid was solubilised up to 5-10 mM in 20 mM Tris pH8, 150 mM NaCl and 0.5% CHAPS. CD1a-endo was incubated at room temperature overnight with 15-40× molar excess of lipid. The mixture was subsequently purified by anion exchange chromatography using a MonoQ column (GE Healthcare). Fractions corresponding to lipid-loaded CD1a were pooled together and up-concentrated to 5 μM. Serial dilutions of CD1a up to a maximum concentration of 1 μM were injected for 60 s at 25 C in 20 mM Tris pH8, 150 mM NaCl buffer. The dissociation time between the injections was between 5 minutes up to 1 h. […] Each injection cycle consisted of a 60 s injection of 1 μM CD1a alone immediately followed by increasing concentrations of TCRs (0 to 50 μM) supplemented with 100 nM CD1a to prevent further dissociation of CD1a from the coupled Ab fragment. The runs were performed at 25 C in 20 mM Tris pH8, 150 mM NaCl, 0.5% BSA buffer. In all SPR experiments relative binding response was calculated by subtracting the non-specific response on a reference cell, where an unrelated protein was coupled. The binding curves were obtained by fitting the measured response to a 1:1 specific binding model in GraphPad.

[16] = biological target: T4, Human CD1a/beta2m heterodimer (HEK293S, …); test: SPR (Biacore 3000): biotinylated OX116 scFv on a streptavidin chip, CD1a-SM24:1 (CD1a loaded with sphingomyelin 24:1) injected up to 1000 nM; 1:1 specific binding fit; unit from the legend paragraph 293
Experimental: as §3

[17] = biological target: T4, Human CD1a/beta2m heterodimer (HEK293S, …); test: SPR (Biacore 3000): biotinylated OX116 scFv on a streptavidin chip, CD1a-endo (CD1a with endogenous lipids) injected up to 1000 nM; 1:1 specific binding fit; unit from the legend paragraph 293
Experimental: as §3

[18] = biological target: T4, Human CD1a/beta2m heterodimer (HEK293S, …); test: SPR (Biacore 3000): biotinylated OX116 scFv on a streptavidin chip, CD1a-GD3 (CD1a loaded with GD3 ganglioside) injected up to 1000 nM; 1:1 specific binding fit; unit from the legend paragraph 293
Experimental: as §3

[19] = biological target: Cynomolgus monkey CD1a expressed on HEK-293 cells (Cynomolgus monkey); test: flow, HEK-293, Ab 1 µg/ml
[20] = biological target: T4, Human CD1a/beta2m heterodimer (HEK293S, …); test: SPR (Biacore 3000): biotinylated OX16 scFv on a streptavidin chip, CD1a-SM24:1 (CD1a loaded with sphingomyelin 24:1) injected up to 1000 nM; 1:1 specific binding fit; unit from the legend paragraph 293
Experimental: as §3

[21] = biological target: T4, Human CD1a/beta2m heterodimer (HEK293S, …); test: SPR (Biacore 3000): biotinylated OX16 scFv on a streptavidin chip, CD1a-LPC (CD1a loaded with lysophosphatidylcholine) injected up to 1000 nM; 1:1 specific binding fit; unit from the legend paragraph 293
Experimental: as §3

[22] = biological target: T4, Human CD1a/beta2m heterodimer (HEK293S, …); test: SPR (Biacore 3000): biotinylated OX16 scFv on a streptavidin chip, CD1a-GD3 (CD1a loaded with GD3 ganglioside) injected up to 1000 nM; 1:1 specific binding fit; unit from the legend paragraph 293
Experimental: as §3

[23] = biological target: T4, Human CD1a/beta2m heterodimer (HEK293S, …); test: SPR (Biacore 3000): biotinylated OX16 scFv on a streptavidin chip, CD1a-endo (CD1a with endogenous lipids) injected up to 1000 nM; response fitted to a 1:1 specific binding model; unit from the legend paragraph 293
Experimental: as §3

Molecule | binding result [5] | binding result [6] | binding result [7] | Fluorescence Intensity Geomean (normalized to background) (fold over background) [8] | Fluorescence Intensity Geomean (normalized to background) (fold over background) [9] | Optical Density (OD) [10] | Fluorescence Intensity Geomean (normalized to background) (fold over background) [11] | Optical Density (OD) [12] | Optical Density (OD) [13] | Optical Density (OD) [14] | Fluorescence Intensity Geomean (normalized to background) (fold over background) [19] | further results
SK9 (antibody) | – | – | – | – | – | – | – | – | – | – | – | CD1a+ (gate frequency, percent of plotted cells; unit not given) [1]: 87.4; CD1a+ (gate frequency, percent of plotted cells; unit not given) [2]: 84.9
HI149 (antibody) | – | – | – | – | – | – | – | – | – | – | – | CD1a+ (gate frequency, percent of plotted cells; unit not given) [3]: 46.6; CD1a+ (gate frequency, percent of plotted cells; unit not given) [4]: 82.2
110 (VR12112) (antibody, V domains shown, V regions were 'cloned as either rabbit or mouse full length antibodies'; also called OX110; antibody 110) VH: QSVEESGGRLVTPGTPLTLTCTVSGFSLSSYAMIWVRQAPGKGLEWIGIINSSDNTHYATWAKGRFTISKTSTTVDLKITSPTTEDTATYFCARDPYDYGYGWYFDLWGPGTLVTVSS VL: AQVLTQTPSPVSAAVGGTVTINCQASQSVFNNKNLAWYQQKPGQPPKLLIYKASTLASGVSSRFKGSGSGTQFALTISGVQCDDAATYYCQGEFSCSSTDCVTFGGGTEVVVK | no binding (tested: 100 µg/ml) | no binding (tested: 100 µg/ml) | no binding (tested: 100 µg/ml) | 13.6 | 3.3 | 0.53 OD | 1.2 | 0.22 OD | 0.86 OD | 0.94 OD | – | –
OX116 scFv (scFv, biotinylated on the C-terminal biotinylation tag (SPR only), The entry holds the leader, VH, linker, VL, 3C site, BirA tag and His tag; For crystallisation the BirA and His tags were cut off with 3C protease; also called OX116 Ab fragment) scFv: DAQSVEESGGRLVTPGTPLTLTCTVSGFSLSNYAMSWVRQAPGKGLEWIGIIYTTGFTYYASWVKGRFTISKTSTTVDLKITSPTTEDTATYFCARGLATYVSPPTRLDLWGQGTLVTVSSGGGGSGGGGSGGGGSAQVLTQTPSPVSAAVGGTVTINCQASQSIYNSKNLAWYQQKPGQPPKLLIYSASTLASGVPSRFKGSGSGTQFTLTISDLESDDAATYYCQGEFSCSSVDCATFGGGTEVVVKSGLEVLFQGPGSGLNDIFEAQKIEWHEHHHHHH | – | – | – | – | – | – | – | – | – | – | – | Kd [15]: 1520 nM; Kd [16]: 529 nM; Kd [17]: 483 nM; Kd [18]: 329 nM
77A (VR11851) (antibody, V domains shown, V regions were 'cloned as either rabbit or mouse full length antibodies'; also called OX77a; antibody 77a) VH: QSVEESGGRLVTPGTPLTLTCTVSGFSLSSYAMSWVRQAPGKGLEWIGIISSSGTTYYASWAKGRFTISKTSTTVDLKITSPTTEDTATYFCARVDYYSSGWGGLWGPGTLVTVSS VL: AVEMTQTPASMSAAVGGTVTIKCQASEDIYSNLAWYQQKPGQPPKLLIYGASTLASGVPSRFKGSGSGTEYTLTISGVQCDDAATYYCQCTYDTSSYGNTFGGGTEMVVE | no binding (tested: 100 µg/ml) | no binding (tested: 100 µg/ml) | no binding (tested: 100 µg/ml) | 1.4 | 5.7 | 0.24 OD | 1.7 | 0.1 OD | 0.52 OD | 0.43 OD | 10.6 | –
111 (VR12113) (antibody, V domains shown, also called OX111) VH: QSVEESGGRLVTPGTPLTLTCTASGFSLSTYAMSWVRQAPGKGLEWIGIISSSGSTYYASWAKGRFTISKTSTTVDLKITSPTTEDTATYFCARETWYWLDLWGQGTLVTVSS VL: AVEMTQTPASVSAAVGGTVTINCQASEDIYSNLAWYQQKPGQPPKLLIYGASTLASGVPSRFKGSGSGTEYTLTISGVQCDDAATYYCQCAYDSSSYGTPFGGGTEVVVK | no binding (tested: 100 µg/ml) | no binding (tested: 100 µg/ml) | no binding (tested: 100 µg/ml) | 16.3 | 25.8 | 0.66 OD | 8.9 | 0.48 OD | 0.79 OD | 0.69 OD | 12.9 | –
OX16 scFv (scFv, biotinylated on the C-terminal biotinylation tag (SPR only), The entry holds the leader, VH, Gly-Ser linker, VL, 3C site, BirA tag and His tag; For crystallisation the BirA and His tags were cut off with 3C protease; also called 16 ScFv full; single chain variable construct of OX16) scFv: DAEVQLVESGGGLVKPGGSLKLSCAASGFTFSNYAMSWVRQTPEKRLEWVAAINSNGGSAYYPDTVKDRFTISRDNAKNTLYLQMSSLRSEDTALYYCARRFYYDYGWFAYWGQGTLVTVSSGGGGSGGGGSGGGGSDIVLTQSPASLSASVGETVTITCRASENIDSYLAWYQQKQGKSPQLLVYAATLLADGVPSRFSGSGSGTQYSLKINSLQSEDVARYYCQHYYSSPWTFGGGTKLEIKSGLEVLFQGPGSGLNDIFEAQKIEWHEHHHHHH | – | – | – | – | – | – | – | – | – | – | – | Kd [20]: 860 nM; Kd [21]: 1010 nM; Kd [22]: 1270 nM; Kd [23]: 476 nM
116 (VR12117) (antibody, V domains shown, also called OX116) VH: QSVEESGGRLVTPGTPLTLTCTVSGFSLSNYAMSWVRQAPGKGLEWIGIIYTTGFTYYASWVKGRFTISKTSTTVDLKITSPTTEDTATYFCARGLATYVSPPTRLDLWGQGTLVTVSS VL: AQVLTQTPSPVSAAVGGTVTINCQASQSIYNSKNLAWYQQKPGQPPKLLIYSASTLASGVPSRFKGSGSGTQFTLTISDLECDDAATYYCQGEFSCSSVDCATFGGGTEVVVK | no binding (tested: 100 µg/ml) | no binding (tested: 100 µg/ml) | no binding (tested: 100 µg/ml) | 1.7 | 1 | 0.07 OD | 1 | 0.07 OD | 0.16 OD | 0.14 OD | 0.8 | –
